# Test results published in FireProtDB (doi:10.1073/pnas.88.5.1706).
# Details: Enterobacteria phage fd; pH 7; 25 °C; GdnHCl; CD; MOPS 50 mM; NaCl 100 mM; reversible: yes; whole UniProt chain shown
protein,measurement,value
"DNA-Binding protein G5P wild type, P69542 (protein) MIKVEIKPSQAQFTTRSGVSRQGKPYSLNEQLCYVDLGNEYPVLVKITLDEGQPAYAPGLYTVHLSSFKVGQFGSLMIDRLRLVPAK",denaturant m value,3.6 kcal/mol/M
same,denaturant midpoint (higher = more stable),2.61 M
same,unfolding free energy,9 kcal/mol
